From patent publication US8143216B2, “Modified human growth hormone” (Ambrx, Inc., priority 2004, dated 2012)

Target: T1, rat GHR ECD (L43R) (Rattus norvegicus, UniProt P16310, L61R)
T1 construct: (GHR ECD, amino acids S29-T238) was cloned into pET20b vector; made in house
T1 sequence (P16310 47-256 L61R): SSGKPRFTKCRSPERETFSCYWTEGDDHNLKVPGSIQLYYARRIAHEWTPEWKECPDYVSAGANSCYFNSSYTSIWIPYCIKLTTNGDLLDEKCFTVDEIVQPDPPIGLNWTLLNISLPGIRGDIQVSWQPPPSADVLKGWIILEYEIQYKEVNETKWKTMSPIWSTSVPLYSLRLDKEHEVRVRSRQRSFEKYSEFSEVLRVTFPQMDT
Assay: Biacore analysis of binding of GH to GHR
Settings: rat GHR ECD (L43R) immobilized on a CM5 chip, bivalent analyte model
Procedure: Cloning and purification of rat GH receptor The extracellular domain of rat GH receptor (GHR ECD, amino acids S29-T238) was cloned into pET20b vector (Novagen) between Nde I and Hind III sites in frame with C-terminal 6H is tag. A mutation of L43 to R was introduced to further approximate the human GH receptor binding site (Souza et al., Proc Natl Acad Sci USA. (1995) 92(4): 959-63). Recombinant protein was produced in BL21 (DE3) E. coli cells (Novagen) by induction with 0.4 mM IPTG at 30° C. for 4-5 hours. After lysing the cells, the pellet was washed four times by resuspending in a dounce with 30 mL of 50 mM Tris, pH 7.6, 100 mM NaCl, 1 mM EDTA, 1% Triton X-100, and twice with the same buffer without Triton X-100. […] Refolding was accomplished by means of passing an aliquot of the inclusion body solution through a S100 (Sigma) gel filtration column, equilibrated with 50 mM Tris, pH 7.8, 1 M L-arginine, 3.7 mM cystamine, 6.5 mM cysteamine. Fractions containing soluble protein were combined and dialyzed against 50 mM Tris, pH 7.6, 200 mM NaCl, 10% glycerol. The sample was briefly centrifuged to remove any precipitate and incubated with an aliquot of Talon resin (Clontech), according to manufacturer's instructions. After washing the resin with 20 volumes of dialysis buffer supplemented with 5 mM imidazole, protein was eluted with 120 mM imidazole in dialysis buffer. Finally, the sample was dialyzed overnight against 50 mM Tris, pH 7.6, 30 mM NaCl, 1 mM EDTA, 10% glycerol, centrifuged briefly to remove any precipitate, adjusted to 20% glycerol final concentration, aliquoted and stored at −80 C. Concentration of the protein was measured by OD(280) using calculated extinction coefficient of ε=65,700 M^−1*cm^−1.
Approximately 600-800 RUs of soluble GHR ECD was immobilized on a Biacore™ CM5 chip, using a standard amine-coupling procedure, as recommended by the manufacturer. […] See, e.g., Cunningham et al. J Mol. Biol. (1993) 234(3): 554-63 and Wells J A. Proc Natl Acad Sci USA (1996) 93(1): 1-6).
Various concentrations of wild type or mutant GH (0.1-300 nM) in HBS-EP buffer (Biacore™, Pharmacia) were injected over the GHR surface at a flow rate of 40 μl/min for 4-5 minutes, and dissociation was monitored for 15 minutes post-injection. The surface was regenerated by a 15 second pulse of 4.5M MgCl2. […] Reference cell with no receptor immobilized was used to subtract any buffer bulk effects and non-specific binding.
Kinetic binding data obtained from GH titration experiments was processed with BiaEvaluation 4.1 software (BIACORE™). […] Equilibrium dissociation constants (Kd) were calculated as ratios of individual rate constants (koff/kon).

Substance	kon [M⁻¹ s⁻¹]
Y103pAF: hGH with p-acetyl-phenylalanine (pAF) substituted for Y103	~6000
F139pAF: hGH with p-acetyl-phenylalanine (pAF) substituted for F139	680000
Q91pAF: hGH with p-acetyl-phenylalanine (pAF) substituted for Q91	660000
T135pAF: hGH with p-acetyl-phenylalanine (pAF) substituted for T135	720000
F92pAF-5KD PEG: hGH comprising p-acetyl-phenylalanine at position 92 covalently linked to a 5 kDa PEG molecule	620000
A155pAF: hGH with p-acetyl-phenylalanine (pAF) substituted for A155	580000
N99pAF: hGH with p-acetyl-phenylalanine (pAF) substituted for N99	220000
F92pAF-30KD PEG: His-tagged hGH polypeptide comprising p-acetyl-phenylalanine at position 92 covalently linked to 30 kDa PEG	130000
K140pAF: hGH with p-acetyl-phenylalanine (pAF) substituted for K140	720000
E88pAF: hGH with p-acetyl-phenylalanine (pAF) substituted for E88	680000
F92pAF-20KD PEG: hGH comprising p-acetyl-phenylalanine at position 92 covalently linked to a 20 kDa PEG molecule	170000
K145pAF: hGH with p-acetyl-phenylalanine (pAF) substituted for K145	640000
Y111pAF: hGH with p-acetyl-phenylalanine (pAF) substituted for Y111	840000
Y143pAF: hGH with p-acetyl-phenylalanine (pAF) substituted for Y143	780000
R134pAF-5KD PEG: hGH comprising p-acetyl-phenylalanine at position 134 linked to 5 kDa PEG	680000
Y35pAF: hGH with p-acetyl-phenylalanine (pAF) substituted for Y35	780000

More lines, now with the values ahead:

kon [M⁻¹ s⁻¹]	Substance
860000	F92pAF: hGH with p-acetyl-phenylalanine (pAF) substituted for F92
600000	G131pAF: hGH with p-acetyl-phenylalanine (pAF) substituted for G131
70000	R134pAF-30KD PEG: hGH polypeptide comprising p-acetyl-phenylalanine at position 134 covalently linked to 30 kDa PEG
70000	S95pAF: hGH with p-acetyl-phenylalanine (pAF) substituted for S95
1.25e+06	N12pAF: hGH with p-acetyl-phenylalanine (pAF) substituted for N12
640000	P133pAF: hGH with p-acetyl-phenylalanine (pAF) substituted for P133
680000	R16pAF: hGH with p-acetyl-phenylalanine (pAF) substituted for R16
840000	R134pAF: hGH with p-acetyl-phenylalanine (pAF) substituted for R134
620000	G136pAF: hGH with p-acetyl-phenylalanine (pAF) substituted for G136
560000	R94pAF: hGH with p-acetyl-phenylalanine (pAF) substituted for R94

Tested on: not listed separately
Assay: Pharmacokinetic studies, single s.c. dose in normal male Sprague-Dawley rats
Assay type: in vivo, rat
Settings: single bolus s.c. dose of 1 mg/kg in rats, FIG. 15
Procedure: Pharmacokinetic properties of PEG-modified growth hormone compounds were compared to each other and to nonPEGylated growth hormone in male Sprague-Dawley rats (261-425 g) obtained from Charles River Laboratories. Catheters were surgically installed into the carotid artery for blood collection. Following successful catheter installation, animals were assigned to treatment groups (three to six per group) prior to dosing. Animals were dosed subcutaneously with 1 mg/kg of compound in a dose volume of 0.41-0.55 ml/kg. Blood samples were collected at various time points via the indwelling catheter and into EDTA-coated microfuge tubes. Plasma was collected after centrifugation, and stored at −80° C. until analysis. Compound concentrations were measured using antibody sandwich growth hormone ELISA kits from either BioSource International (Camarillo, Calif.) or Diagnostic Systems Laboratories (Webster, Tex.). Concentrations were calculated using standards corresponding to the analog that was dosed. Pharmacokinetic parameters were estimated using the modeling program WinNonlin (Pharsight, version 4.1). Noncompartmental analysis with linear-up/log-down trapezoidal integration was used, and concentration data was uniformly weighted.
Rats (n=3-4 per group) were given a single bolus dose of 1 mg/kg hGH wild-type protein (WHO hGH), His-tagged hGH polypeptide (his-hGH), or His-tagged hGH polypeptide comprising non-natural amino acid p-acetyl-phenylalanine at position 92 covalently linked to 30 kDa PEG (30 KPEG-pAF92(his)hGH). Plasma samples were taken over the indicated time intervals and assayed for injected compound as described.
Rats (n=3-6 per group) were given a single bolus dose of 1 mg/kg protein. hGH polypeptides comprising non-natural amino acid p-acetyl-phenylalanine covalently linked to 30 kDa PEG at each of six different positions were compared to WHO hGH and (his)-hGH. Plasma samples were taken over the indicated time intervals and assayed for injected compound as described. Concentration vs time curves were evaluated by noncompartmental analysis (Pharsight, version 4.1). Values shown are averages (+/− standard deviation). Cmax: maximum concentration; terminal t1/2: terminal half-life; AUC0->inf: area under the concentration-time curve extrapolated to infinity; MRT: mean residence time; Cl/f: apparent total, plasma clearance; Vz/f: apparent volume of distribution during terminal phase.

Substance	circulation (plasma concentrations) compared to control hGH
F92pAF-30KD PEG: His-tagged hGH polypeptide comprising p-acetyl-phenylalanine at position 92 covalently linked to 30 kDa PEG	dramatically extended circulation compared to control hGH

Same assay, conditions: single-dose 1 mg/kg bolus s.c., normal male Sprague-Dawley rats

Substance	AUC0−>inf	Cl/f [mL/min/kg]	Cmax [ng/mL]	MRT [h]	Terminal t1/2 [h]
G131pAF-30KPEG: hGH polypeptide comprising p-acetyl-phenylalanine at position 131 covalently linked to 30 kDa PEG	6,978 ng × hr/ml	2.68	497	14.28	4.41
R134pAF-30KD PEG: hGH polypeptide comprising p-acetyl-phenylalanine at position 134 covalently linked to 30 kDa PEG	7,304 ng × hr/ml	2.52	566	12.15	4.36
K145pAF-30KPEG: hGH polypeptide comprising p-acetyl-phenylalanine at position 145 covalently linked to 30 kDa PEG	13,162 ng × hr/ml	1.47	634	17.82	5.87
Y143pAF-30KPEG: hGH polypeptide comprising p-acetyl-phenylalanine at position 143 covalently linked to 30 kDa PEG	17,494 ng × hr/ml	0.983	803	18.83	6.02
F92pAF-30KD PEG: His-tagged hGH polypeptide comprising p-acetyl-phenylalanine at position 92 covalently linked to 30 kDa PEG	10,539 ng × hr/ml	2.25	663	15.05	4.51
